Where “and” joins values, the source holds several entries; their conditions need not be identical. Identical values can stand only once.
B1: 1114.03 (peptide)
chain: AYAEAKAAI
B2: F078.06 (peptide)
chain: YYVSRDTLL
B3: 1114.05 (peptide)
chain: AYANAKAAI
B4: F078.18 (peptide)
chain: SYLTLAKHTI
B5: 1074.15 (peptide)
chain: RYLENGKETL
B6: 1114.01 (peptide)
chain: AYAPAKAAI
B7: F057.08 (peptide)
chain: WYIPPSLRTL
B8: 1114.09 (peptide)
chain: AYAVAKAAI
B9: 1114.07 (peptide)
chain: AYAGAKAAI
B10: F078.05 (peptide)
chain: HYYVSRDTL
B11: 14.0137 (peptide)
chain: HYISMGTSGL
B12: HBV core 116 (peptide)
chain: SYVNTNMGL
B13: F078.07 (peptide)
chain: SFFSSWQII
B14: HBV env 362 (peptide)
chain: WYWGPSLYSI
B15: 1081.06 (peptide)
chain: SYVPSAEQIL
B16: Flu NS 31 (peptide)
chain: MITQFESL
B17: LCMV NP 396 (peptide)
chain: FQPQNGQFI
B18: FluA POL1 198 (peptide)
chain: KMITQRTI
B19: FluA HA 403 (peptide)
chain: MNIQFTAV
B20: HBV pol 419 (peptide)
chain: VSAAFYHL
B21: 16.0004 (peptide)
chain: LGYDYSYL
B22: 1476.12 (peptide)
chain: HMWNFIGV
B23: FluA POL2 463 (peptide)
chain: VYINTALL
B24: 22.0012 (peptide)
chain: LAVLYCLL
B25: HBV core 122 (peptide)
chain: MGLKFRQL
B26: F079.03 (peptide)
chain: SIQFFGERAL
B27: F117.14 (peptide)
chain: SVYDFFVWL
B28: 16.0031 (peptide)
chain: ANFSFRNTL
B29: 14.0011 (peptide)
chain: ISHNFCNL
B30: F079.04 (peptide)
chain: SIQFFGEL
B31: 14.0008 (peptide)
chain: IVTMFEAL
B32: F079.08 (peptide)
chain: AAAANAAAM
B33: FluA HA 305 (peptide)
chain: SSLPFQNI
B34: 22.0011 (peptide)
chain: KNKFFSYL
B35: FluA NP 36 (peptide)
chain: IGRFYIQM
B36: 14.0018 (peptide)
chain: GVYQFKSV
B37: Flu M1 128 (peptide)
chain: MGLIYNRM
B38: F138.03 (peptide)
chain: SVYDFYVWM
B39: 14.0118 (peptide)
chain: VGLSYSQTM
B40: 1275.04 (peptide)
chain: FAPGYNPAL
B41: Flu NS 114 (peptide)
chain: RTFSFQLI
B42: FluA M1 117 (peptide)
chain: LSYSAGAL
B43: FluA POL3 227 (peptide)
chain: VYIEVLHL
B44: F190.04 (peptide)
chain: SHYAFSPM
B45: 1079.14 (peptide)
chain: RNPRFYNL
B46: 17.0284 (peptide)
chain: NAIVFKGL
B47: HBV core 115 (peptide)
chain: VSYVNTNM
B48: HBV env 329 (peptide)
chain: ASARFSWL
B49: 1087.01 (peptide)
chain: RGPGRAFVTI
B50: F079.09 (peptide)
chain: AAAAAANAAAM
B51: FluA POL1 495 (peptide)
chain: FFYRYGFV
B52: 928.07 (peptide)
chain: SGVENPGGYCL
B53: FluA POL1 465 (peptide)
chain: RFYRTCKL
B54: 22.0021 (peptide)
chain: YMVPFIPL
B55: HBV pol 668 (peptide)
chain: KQYLNLYPV
B56: FluA NM 46 (peptide)
chain: TGICNQNII
B57: 1275.03 (peptide)
chain: ASNENMDAM
B58: F079.06 (peptide)
chain: AAAAYAAAAM
B59: 928.15 (peptide)
chain: FQPQNGQFIHFY
B60: F079.05 (peptide)
chain: AAAAYAAM
B61: F142.01 (peptide)
chain: KVPRNQDWL
B62: FluA POL1 141 (peptide)
chain: TALANTIEV
B63: F100.04 (peptide)
chain: SQVMNLHNL
B64: 16.0029 (peptide)
chain: SSMHNALHI

Target: T1, H-2Kd (mouse)
T1 chain 1: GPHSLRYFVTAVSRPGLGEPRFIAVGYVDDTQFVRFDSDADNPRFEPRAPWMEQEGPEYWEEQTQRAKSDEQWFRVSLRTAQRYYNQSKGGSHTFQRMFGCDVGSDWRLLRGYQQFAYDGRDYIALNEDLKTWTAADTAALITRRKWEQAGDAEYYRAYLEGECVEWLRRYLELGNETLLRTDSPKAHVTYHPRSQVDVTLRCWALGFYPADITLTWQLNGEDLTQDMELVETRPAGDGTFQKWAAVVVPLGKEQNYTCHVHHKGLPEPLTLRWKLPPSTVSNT
T1 chain 2: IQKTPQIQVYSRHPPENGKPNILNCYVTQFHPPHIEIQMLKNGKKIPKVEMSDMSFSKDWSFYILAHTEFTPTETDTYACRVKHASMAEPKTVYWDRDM
Assay: competition
Settings: modification not given

Going from B1 to B2, the IC50 rises from 50 nM to 99 nM (2-fold).

Compared with B3, B4 is 14-fold lower in IC50: 60 nM for the first, 4.4 nM for the second.

Going from B5 to B6, the IC50 falls from 80 nM to 3.5 nM (23-fold).

Compared with B7, B8 is 2.3-fold lower in IC50: 96 nM for the first, 42 nM for the second. The second is the more potent here.

B9 and B10 are within 1.5-fold of each other in IC50: 48 nM for the first, 43 nM for the second.

Compared with B11, B13 is 5.2-fold lower in IC50: 83 nM for the first, 16 nM for the second.

B15 gave an IC50 of 280 nM.

With B12 the IC50 was 19 nM and 12 nM.
With B14 the IC50 was 16 nM and 8.3 nM.

Target: T2, H-2Kb (mouse)
T2 chain 1: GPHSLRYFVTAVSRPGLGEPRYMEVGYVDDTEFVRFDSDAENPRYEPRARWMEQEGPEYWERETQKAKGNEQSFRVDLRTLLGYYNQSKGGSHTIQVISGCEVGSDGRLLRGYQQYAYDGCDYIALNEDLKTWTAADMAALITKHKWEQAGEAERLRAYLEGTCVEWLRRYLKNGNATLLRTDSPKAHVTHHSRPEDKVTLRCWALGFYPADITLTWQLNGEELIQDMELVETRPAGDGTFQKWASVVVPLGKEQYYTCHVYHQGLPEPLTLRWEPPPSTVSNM
T2 chain 2: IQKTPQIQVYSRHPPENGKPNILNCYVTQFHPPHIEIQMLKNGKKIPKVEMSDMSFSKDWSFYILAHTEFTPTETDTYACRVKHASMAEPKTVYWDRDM
Assay: competition
Settings: modification not given

With B16 the IC50 was 42 nM and 64 nM.
With B17 the IC50 was > 31000 nM and 9510 nM.
B20 was tested, and the IC50 was 5.2 nM and 7 nM.
B23 was tested, and the IC50 was 14 nM and 65 nM.
B25 was tested, and the IC50 was 7.4 nM and 6.3 nM.
B33 was tested, and the IC50 was 9.5 nM and 53 nM.
B35 was tested, and the IC50 was 24 nM and 42 nM.
B37 was tested, and the IC50 was 16 nM and 9.9 nM.
For B41, the IC50 was 26 nM and 27 nM.
B42 was tested, and the IC50 was 60 nM and 31 nM.
In the case of B43, the IC50 is reported as 75 nM and 21 nM.
With B47 the IC50 was 33 nM and 60 nM.
With B48 the IC50 was 323 nM and 49 nM.

First: B18
Second: B19
The IC50 of the first is 12-fold higher: 300 nM for the first, 26 nM for the second.

Going from B21 to B22, the IC50 rises from 3.4 nM to 202 nM (59-fold). The first is the more potent here.

Going from B24 to B26, the IC50 falls from 72 nM to 21 nM (3.4-fold).

Compared with B27, B28 is 6-fold higher in IC50: 1 nM for the first, 6 nM for the second. The first is the more potent here.

Compared with B29, B30 is 26-fold lower in IC50: 411 nM for the first, 16 nM for the second.

First: B31
Second: B32
The IC50 of the first is 130-fold lower: 82 nM for the first, 11000 nM for the second. The first is the more potent here.

First: B34
Second: B36
The IC50 of the first is 5.2-fold higher: 57 nM for the first, 11 nM for the second. The second is the more potent here.

First: B38
Second: B39
The IC50 of the first is 59-fold lower: 1.2 nM for the first, 71 nM for the second. The first is the more potent here.

First: B40
Second: B44
The IC50 of the first is 120-fold lower: 2 nM for the first, 250 nM for the second.

Going from B45 to B46, the IC50 rises from 7.9 nM to 484 nM (61-fold). The first is the more potent here.

B49 and B50 are the same in IC50: 31000 nM for the first, 31000 nM for the second.

Compared with B51, B52 is higher in IC50: 350 nM for the first, over 31000 nM for the second. The first is the more potent here.

B53 and B54 are within 1.5-fold of each other in IC50: 47 nM for the first, 70 nM for the second.

Target: T3, H-2Db (mouse)
T3 chain 1: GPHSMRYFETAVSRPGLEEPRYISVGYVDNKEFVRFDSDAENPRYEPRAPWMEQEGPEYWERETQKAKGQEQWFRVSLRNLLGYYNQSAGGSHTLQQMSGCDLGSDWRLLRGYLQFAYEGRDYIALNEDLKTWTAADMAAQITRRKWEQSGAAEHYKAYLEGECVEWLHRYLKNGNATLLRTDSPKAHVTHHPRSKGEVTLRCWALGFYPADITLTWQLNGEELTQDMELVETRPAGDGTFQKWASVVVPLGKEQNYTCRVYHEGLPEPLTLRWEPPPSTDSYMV
T3 chain 2: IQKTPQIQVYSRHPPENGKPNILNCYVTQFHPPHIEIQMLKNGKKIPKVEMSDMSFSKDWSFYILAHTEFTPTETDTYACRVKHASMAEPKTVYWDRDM
Assay: competition
Settings: modification not given

For B17, the IC50 was 4.9 nM and 6.9 nM and 17 nM.
In the case of B56, the IC50 is reported as 21 nM and 13 nM.
For B62, the IC50 was 3.7 nM and 16 nM.

First: B55
Second: B57
The IC50 of the first is 8.2-fold lower: 3.4 nM for the first, 28 nM for the second.

B26 and B30 cannot be ordered by IC50: over 44000 nM for the first, over 44000 nM for the second.

Compared with B58, B59 is lower in IC50: over 44000 nM for the first, 280 nM for the second.

Going from B32 to B60, the IC50 rises from 23 nM to over 44000 nM.

Compared with B61, B44 is higher in IC50: 38 nM for the first, over 88000 nM for the second. The first is the more potent here.

Going from B45 to B49, the IC50 falls from over 44000 nM to 22000 nM. The second is the more potent here.

Going from B63 to B52, the IC50 rises from 2.3 nM to 60 nM (26-fold).

Binder B64 has an IC50 of 7.6 nM.

From US9340577
